Measurements from IntAct's records for PubMed 36126419.

B1: 3-mercaptopyruvate sulfurtransferase (Homo sapiens), P25325 (parent)
chain: MASPQLCRALVSAQWVAEALRAPRAGQPLQLLDASWYLPKLGRDARREFEERHIPGAAFFDIDQCSDRTSPYDHMLPGAEHFAEYAGRLGVGAATHVVIYDASDQGLYSAPRVWWMFRAFGHHAVSLLDGGLRHWLRQNLPLSSGKSQPAPAEFRAQLDPAFIKTYEDIKENLESRRFQVVDSRATGRFRGTEPEPRDGIEPGHIPGTVNIPFTDFLSQEGLEKSPEEIRHLFQEKKVDLSKPLVATCGSGVTACHVALGAYLCGKPDVPIYDGSWVEWYMRARPEDVISEGRGKTH

Variants of: B1
Conditions: with akt1_human AKT1, P31749
akt1_human AKT1, P31749, sequence (P31749 whole entry): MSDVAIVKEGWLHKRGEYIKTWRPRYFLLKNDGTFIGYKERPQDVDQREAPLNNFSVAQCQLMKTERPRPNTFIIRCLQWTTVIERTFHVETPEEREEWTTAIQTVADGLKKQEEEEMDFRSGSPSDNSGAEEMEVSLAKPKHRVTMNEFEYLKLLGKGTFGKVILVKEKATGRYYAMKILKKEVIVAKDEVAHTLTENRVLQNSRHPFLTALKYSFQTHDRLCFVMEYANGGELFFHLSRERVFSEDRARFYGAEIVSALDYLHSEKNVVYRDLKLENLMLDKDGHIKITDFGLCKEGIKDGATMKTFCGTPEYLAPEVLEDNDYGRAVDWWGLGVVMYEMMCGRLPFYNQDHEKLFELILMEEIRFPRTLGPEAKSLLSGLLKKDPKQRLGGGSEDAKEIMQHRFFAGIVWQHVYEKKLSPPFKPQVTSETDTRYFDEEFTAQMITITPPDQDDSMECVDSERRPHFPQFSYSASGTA

Row | Variant | effect of a mutation on the interaction
1 | C248A | disrupting interaction strength
